{
  "source": "IntAct's records for PubMed 23063561",
  "parents": {"B1": {"name": "1-phosphatidylinositol 4,5-bisphosphate phosphodiesterase gamma-1 (Homo sapiens), P19174 (parent)", "chain": "MAGAASPCANGCGPGAPSDAEVLHLCRSLEVGTVMTLFYSKKSQRPERKTFQVKLETRQITWSRGADKIEGAIDIREIKEIRPGKTSRDFDRYQEDPAFRPDQSHCFVILYGMEFRLKTLSLQATSEDEVNMWIKGLTWLMEDTLQAPTPLQIERWLRKQFYSVDRNREDRISAKDLKNMLSQVNYRVPNMRFLRERLTDLEQRSGDITYGQFAQLYRSLMYSAQKTMDLPFLEASTLRAGERPELCRVSLPEFQQFLLDYQGELWAVDRLQVQEFMLSFLRDPLREIEEPYFFLDEFVTFLFSKENSVWNSQLDAVCPDTMNNPLSHYWISSSHNTYLTGDQFSSESSLEAYARCLRMGCRCIELDCWDGPDGMPVIYHGHTLTTKIKFSDVLHTIKEHAFVASEYPVILSIEDHCSIAQQRNMAQYFKKVLGDTLLTKPVEISADGLPSPNQLKRKILIKHKKLAEGSAYEEVPTSMMYSENDISNSIKNGILYLEDPVNHEWYPHYFVLTSSKIYYSEETSSDQGNEDEEEPKEVSSSTELHSNEKWFHGKLGAGRDGRHIAERLLTEYCIETGAPDGSFLVRESETFVGDYTLSFWRNGKVQHCRIHSRQDAGTPKFFLTDNLVFDSLYDLITHYQQVPLRCNEFEMRLSEPVPQTNAHESKEWYHASLTRAQAEHMLMRVPRDGAFLVRKRNEPNSYAISFRAEGKIKHCRVQQEGQTVMLGNSEFDSLVDLISYYEKHPLYRKMKLRYPINEEALEKIGTAEPDYGALYEGRNPGFYVEANPMPTFKCAVKALFDYKAQREDELTFIKSAIIQNVEKQEGGWWRGDYGGKKQLWFPSNYVEEMVNPVALEPEREHLDENSPLGDLLRGVLDVPACQIAIRPEGKNNRLFVFSISMASVAHWSLDVAADSQEELQDWVKKIREVAQTADARLTEGKIMERRKKIALELSELVVYCRPVPFDEEKIGTERACYRDMSSFPETKAEKYVNKAKGKKFLQYNRLQLSRIYPKGQRLDSSNYDPLPMWICGSQLVALNFQTPDKPMQMNQALFMTGRHCGYVLQPSTMRDEAFDPFDKSSLRGLEPCAISIEVLGARHLPKNGRGIVCPFVEIEVAGAEYDSTKQKTEFVVDNGLNPVWPAKPFHFQISNPEFAFLRFVVYEEDMFSDQNFLAQATFPVKGLKTGYRAVPLKNNYSEDLELASLLIKIDIFPAKENGDLSPFSGTSLRERGSDASGQLFHGRAREGSFESRYQQPFEDFRISQEHLADHFDSRERRAPRRTRVNGDNRL"}},
  "data": [
    {"variants_of": "B1", "conditions": "with fgfr1_human FGFR1, P11362", "values": [
      {"variant": "Y783F", "effect of a mutation on the interaction": "increasing interaction strength"}
    ]},
    {"variants_of": "B1", "conditions": "with fgfr1_human FGFR1, P11362", "remark": "another data set of the same source", "values": [
      {"variant": "R586L", "effect of a mutation on the interaction": "disrupting interaction strength"}
    ]}
  ]
}
